The values below are quoted from earlier work in article doi:10.1101/2025.11.30.690581.

By pKa is commonly meant the negative logarithm of the acid dissociation constant.

The target in one data set is Lys92 (UniProt position 174, RGLAYKYADGK). The data set can be described thus: stability. The settings on record: apparent pKa of the native-state ensemble in the reference Δ+PHS background.
The next data set has as its target Lys66 (UniProt position 148, FTKKMKENAKK). The data set is described as follows: stability. The settings on record: apparent pKa of the native-state ensemble in the reference Δ+PHS background.

For the substance “Staphylococcal nuclease Δ+PHS I92K (reference protein with Lys-92) (Staphylococcus aureus; G50F;V51N;P117G;H124L;S128A;del44-49;I92K)”, in the data set with Lys92, the pKa is 5.2.

As for “Staphylococcal nuclease Δ+PHS V66K (reference protein with Lys-66) (Staphylococcus aureus; G50F;V51N;P117G;H124L;S128A;del44-49;V66K)”, the pKa with Lys66 is 5.7.
